Substrate in data set [1]: CC(C)=CCNc1ncnc2c1ncn2C1OC(CO)C(O)C1O
Kind of data set: ADK activity, coupled reaction with PK and LDH. Conditions: other: PpADK1, 10 mM ATP, pH 7.5, 30 °C. Format: biochemical, Physcomitrella patens. The protocol:
(§1) Substrate analogs were purchased from Sigma-Aldrich (www.sigmaaldrich.com). The ADK activity was measured spectrophotometrically on an Agilent 8453 UV-Vis spectrophotometer (www.agilent.com) at 30 °C using a coupled reaction with pyruvate kinase (PK) and lactate dehydrogenase (LDH) (www.sigmaaldrich.com) ([Blondin et al., 1994]). In this assay, PK converts ADP produced by ADK and phosphoenolpyruvate (PEP) to pyruvate. Subsequently, LDH then converts pyruvate to lactate using the coenzyme NADH, with the conversion monitored at 340 nm. The reaction was conducted in 50 mM Tris–HCl buffer at pH 7.5, containing 50 mM KCl, 6 mM MgCl2, 300 µM PEP, 200 µM NADH, 10 mM ATP, 2 U of PK, and 2.5 U of LDH, using various nucleoside substrates. Kinetic constants were determined using GraphPad Prism 8.0 software (www.graphpad.com). Each measurement was performed six times using repetitive purified enzymes. The activities of all five ADKs were also measured by HPLC ([Moffatt et al., 1991]). The reaction mixture comprised 50 mM Tris–HCl pH 7.5, 5 mM MgCl2, 0.5 mM DTT, 30 mM NaF, 5 mM ATP, 40 µM substrate, and 2–150 ng of purified ADK, depending on the isoform. The reaction was incubated at 30 °C for up to 1 h. […]

Substrate in data set [2]: Nc1ncnc2c1ncn2[C@@H]1O[C@H](CO)[C@@H](O)[C@H]1O
Kind of data set: ADK activity, coupled reaction with PK and LDH. Conditions: other: PpADK1, 10 mM ATP, pH 7.5, 30 °C. Format: biochemical, Physcomitrella patens. The protocol: as §1

Substrate in data set [3]: Nc1ncnc2c1ncn2[C@@H]1O[C@H](CO)[C@@H](O)[C@@H]1O
Kind of data set: ADK activity, coupled reaction with PK and LDH. Format: biochemical, Zea mays. To be noted: other: ZmADK2, 10 mM ATP, pH 7.5, 30 °C. How it is done:
(§2) Substrate analogs were purchased from Sigma-Aldrich (www.sigmaaldrich.com). The ADK activity was measured spectrophotometrically on an Agilent 8453 UV-Vis spectrophotometer (www.agilent.com) at 30 °C using a coupled reaction with pyruvate kinase (PK) and lactate dehydrogenase (LDH) (www.sigmaaldrich.com) ([Blondin et al., 1994]). In this assay, PK converts ADP produced by ADK and phosphoenolpyruvate (PEP) to pyruvate. Subsequently, LDH then converts pyruvate to lactate using the coenzyme NADH, with the conversion monitored at 340 nm. The reaction was conducted in 50 mM Tris–HCl buffer at pH 7.5, containing 50 mM KCl, 6 mM MgCl2, 300 µM PEP, 200 µM NADH, 10 mM ATP, 2 U of PK, and 2.5 U of LDH, using various nucleoside substrates. Kinetic constants were determined using GraphPad Prism 8.0 software (www.graphpad.com). Each measurement was performed six times using repetitive purified enzymes. The activities of all five ADKs were also measured by HPLC ([Moffatt et al., 1991]). The reaction mixture comprised 50 mM Tris–HCl pH 7.5, 5 mM MgCl2, 0.5 mM DTT, 30 mM NaF, 5 mM ATP, 40 µM substrate, and 2–150 ng of purified ADK, depending on the isoform. The reaction was incubated at 30 °C for up to 1 h. […] Similarly, the conversion of cytokinin ribosides to monophosphates was followed on a LiChrosphere 60 RP-Select B (5 µm) LiChroCART column 125-4 column equilibrated with 10 mM triethylamine at pH 5.4 plus 10% methanol, and stepwise eluted with 100% methanol.

Substrate in data set [4]: Nc1nc2c(ncn2[C@@H]2O[C@H](CO)[C@@H](O)[C@H]2O)c(=O)[nH]1
Kind of data set: ADK activity, coupled reaction with PK and LDH. Format: biochemical, Zea mays. To be noted: other: ZmADK2, 10 mM ATP, pH 7.5, 30 °C. How it is done:
as §2

Substrate in data set [5]: Nc1ncnc2c1ncn2[C@@H]1O[C@H](CO)C[C@H]1O
Kind of data set: ADK activity, coupled reaction with PK and LDH. Format: biochemical, Zea mays. To be noted: other: ZmADK2, 10 mM ATP, pH 7.5, 30 °C. How it is done:
as §2

Substrate in data set [6]: CC(C)=CCNc1ncnc2c1ncn2C1OC(CO)C(O)C1O
Kind of data set: ADK activity, coupled reaction with PK and LDH. Format: biochemical, Zea mays. Conditions: other: ZmADK2, 10 mM ATP, pH 7.5, 30 °C. The protocol:
as §2

Substrate in data set [7]: OC[C@H]1O[C@@H](n2cnc3c(O)ncnc32)[C@H](O)[C@@H]1O
Kind of data set: ADK activity, coupled reaction with PK and LDH. Format: biochemical, Zea mays. To be noted: other: ZmADK2, 10 mM ATP, pH 7.5, 30 °C. The protocol:
as §2

Substrate in data set [8]: Nc1ncnc2c1ncn2[C@@H]1O[C@H](CO)[C@@H](O)[C@H]1O
Kind of data set: ADK activity, coupled reaction with PK and LDH. Format: biochemical, Zea mays. To be noted: other: ZmADK2, 10 mM ATP, pH 7.5, 30 °C. How it is done:
as §2

Substrate in data set [9]: Nc1ccn([C@@H]2O[C@H](CO)[C@@H](O)[C@H]2O)c(=O)n1
Kind of data set: ADK activity, coupled reaction with PK and LDH. Format: biochemical, Zea mays. Conditions: other: ZmADK2, 10 mM ATP, pH 7.5, 30 °C. The protocol: as §2

Substrate in data set [10]: O=c1[nH]c(=O)c2ncn([C@@H]3O[C@H](CO)[C@@H](O)[C@H]3O)c2[nH]1
Kind of data set: ADK activity, coupled reaction with PK and LDH. Format: biochemical, Zea mays. To be noted: other: ZmADK2, 10 mM ATP, pH 7.5, 30 °C. The protocol:
as §2

Substrate in data set [11]: Nc1ncnc2c1ncn2[C@@H]1O[C@H](CO)[C@@H](O)[C@H]1O
Kind of data set: purified protein, by the assay type. Conditions: pH 7.5, 30 °C.

The values below come from article PMC12369479.

Where “and” joins values, the source holds several entries; their conditions need not be identical. Equal entries are not always repeated.

In general, Km refers to the concentration of substrate that gives half-maximal velocity. As usually defined, the kcat is the maximal rate divided by the concentration of active sites.

B1: PpADK1 (Physcomitrium patens) (protein)
chain: MASEGVLLGMGNPLLDISCVVDDAFLEKYGLTLNNAILAEDKHLPMYKELAANPDVEYIAGGATQNTIRIAQWMLGESNATSYFGCVGKDEYGDRMFKLASEGGVNIRYDVDEDLPTGTCGVLVVKGERSLVANLSAANKYKIDHLKKPENWAFVEKAKYIYSAGFFLTVSPESMMTVAKHAAETGKYYMINLAAPFICQFFKDPLMELFPYVDFIFGNESEARAFAQVQGWETEDTKVIAVKLAALPKAGGTHKRVAVITQGTDPTIVAEDGKVTEFPVTPIPKEKLVDTNAAGDSFVGGFLSQLVLGKDIAQCVRAGNYAASVIIQRSGCTFPSKPSFESQ
notes: made in house; host or cells: E. coli T7 Express Iq
For the protein B1, the Km turned out to be 12.1 ± 2.5 µM in data set [1] and 0.71 ± 0.05 µM in data set [2].

B2: ZmADK2 (Zea mays; T4S) (protein)
chain: MAASEGVLLGMGNPLLDISAVVDDAFLTKYDIKLNNAILAEEKHLPMYDELASKSNVEYIAGGATQNSIRVAQWMLQTPGATSYMGCIGKDKFGEEMKKNAQAAGVTAHYYEDETAPTGTCAVCVVGGERSLIANLSAANCYKSEHLKRPENWALVEKAKYIYIAGFFLTVSPDSIQLVAEHAAANNKVFLMNLSAPFICEFFRDAQEKVLPYADYIFGNETEAKIFAKVRGWETENIEEIALKISQLPLASGKQKRIAVITQGADPVVVAEDGKVKTFPVILLPKEKLVDTNGAGDAFVGGFLSQLVLGKGIEDCVRAGCYAANVIIQRPGCTYPEKPDFN
B2: the Km in data set [3] was 524 ± 51 µM; in data set [4], 218 ± 23 µM; in data set [5], 170 µM and 173 ± 11 µM; in data set [6] it was 9.8 ± 1.5 µM; in data set [7], 420 ± 44 µM; in data set [8], 0.65 ± 0.09 µM. Also, the results for the Km in data set [9] and in data set [10] were 313 ± 28 µM and 178 ± 10 µM, respectively. The kcat in data set [3] was 0.24 ± 0.02 s⁻¹; in data set [4] it was 0.48 ± 0.02 s⁻¹; in data set [5], 0.43 ± 0.01 s⁻¹; in data set [7], 0.57 ± 0.02 s⁻¹; in data set [9], 0.23 ± 0.01 s⁻¹; in data set [10] it was 0.55 ± 0.01 s⁻¹.

B3: PpADK2 (Physcomitrium patens) (protein)
chain: MASEGVLLGMGNPLLDISCVVDEAFLEKYGLTLNNAILAEDKHLPIYKELAGRPDVEYIAGGATQNTIRIAQWMLREPKATSYIGCVGKDEFGDRMYKLASEGGVNIQYDVDEELPTGTCGVLVVKGERSLVANLSAAKKYKIDHLKKPENWVCVERAKFIYSSGFFLAVSPESMMTVARHAAETGKYYMINLAAPFICQFKDLMELFPYVDFIFGNESEARTFAQVQGWETEDTKIIAVKLAALPKASGTHKRVAVITQGTDPTIVSVDGQVTEIPITVIPKNKLVDTNAAGDAFVGGFLSQLVLGKDIVECVRAGNYASSIIIQRSGCTFPLKPCFQSE
As to B3, the Km in [11] (other: PpADK2, 10 mM ATP) stood at 0.54 ± 0.05 µM.

B4: ZmADK1 (Zea mays) (protein)
chain: MAASEGVLLGMGNPLLDISAVVDDAFLAKYDIKLNNAILAEEKHSPMYDELASNSNVEYIAGGATQNSIRVAQWMLQTPGATSYMGCIGKDKFGEEMKKNAQAAGVTAHYYEDETAPTGTCAVCVVGGERSLIANLSAANCYKSEHLKRPENWALVEKAKYIYIAGFFLTVSPDSIQLVAEHAAANNKVFLMNLSAPFICEFFYDAQEKVLPYADFIFGNETEAKIFAKVRGWETENVEEIALKISQLPLASGKQKRIAVITQGADPVVVAEDGKVKTFPVILLPKEKLVDTNGAGDAFVGGFLSRLVQGKSIEDCVTAGCYAANVVIQRPGCTYPEKPDFN
B4: the Km in data set [11] (other: ZmADK1, 10 mM ATP) was 0.62 ± 0.11 µM.
